Data from publication PMC6776472 (Biochemistry, 2018).
No end group written: not given here.

B1: pepMKK6mb (designed binder)
chain: RDLEVVAATPTSLLISWDAPAVTVRYYRITYGETGGNSPVQEFTVPGSKSTATISGLKPGVDYTITVYAVTGRPGLKIPSKPISINYRTEI

Assays:
JNK1 = JNK1 (UniProt P45983 1-427); assay: ITC
[1] = target: p38α (unphosphorylated, recombinant) (UniProt Q16539 1-360); assay: fluorescence polarisation
ERK2 = ERK2 (UniProt P28482 1-360); assay: fluorescence polarisation
Chain of ERK2 (P28482 whole entry): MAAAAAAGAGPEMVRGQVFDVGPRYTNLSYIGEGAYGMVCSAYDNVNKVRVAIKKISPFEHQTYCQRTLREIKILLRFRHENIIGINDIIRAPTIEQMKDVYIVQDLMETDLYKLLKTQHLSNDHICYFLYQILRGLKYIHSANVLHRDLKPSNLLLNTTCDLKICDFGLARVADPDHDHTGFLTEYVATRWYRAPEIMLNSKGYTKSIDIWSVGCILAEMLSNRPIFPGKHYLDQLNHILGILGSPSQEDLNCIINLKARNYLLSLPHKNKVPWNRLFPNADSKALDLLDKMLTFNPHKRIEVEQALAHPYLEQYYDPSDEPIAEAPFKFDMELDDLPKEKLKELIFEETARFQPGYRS

Chain of JNK1 (P45983 whole entry): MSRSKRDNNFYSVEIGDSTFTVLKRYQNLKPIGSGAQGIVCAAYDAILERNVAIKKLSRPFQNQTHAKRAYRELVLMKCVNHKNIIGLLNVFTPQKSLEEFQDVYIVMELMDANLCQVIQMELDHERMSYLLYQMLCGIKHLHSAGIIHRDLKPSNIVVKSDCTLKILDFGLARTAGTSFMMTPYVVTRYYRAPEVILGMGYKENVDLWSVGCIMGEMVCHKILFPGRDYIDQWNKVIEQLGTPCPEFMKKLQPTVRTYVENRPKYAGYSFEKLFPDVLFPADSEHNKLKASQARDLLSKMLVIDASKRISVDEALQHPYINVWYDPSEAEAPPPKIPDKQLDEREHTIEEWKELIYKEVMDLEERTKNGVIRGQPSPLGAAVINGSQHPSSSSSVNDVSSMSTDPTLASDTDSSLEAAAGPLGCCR
Chain of p38α (unphosphorylated, recombinant) (Q16539 whole entry): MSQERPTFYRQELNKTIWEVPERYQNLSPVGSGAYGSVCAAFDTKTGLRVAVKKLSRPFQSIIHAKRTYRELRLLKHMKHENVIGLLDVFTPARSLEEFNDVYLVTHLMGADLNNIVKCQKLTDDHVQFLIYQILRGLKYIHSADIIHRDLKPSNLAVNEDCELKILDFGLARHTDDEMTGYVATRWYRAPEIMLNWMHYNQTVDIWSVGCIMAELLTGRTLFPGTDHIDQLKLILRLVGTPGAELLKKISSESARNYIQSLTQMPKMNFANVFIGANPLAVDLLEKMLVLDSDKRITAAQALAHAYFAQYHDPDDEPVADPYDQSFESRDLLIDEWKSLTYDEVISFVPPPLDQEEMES

| Binder | Kd (JNK1) | Kd [1] | binding result (ERK2) |
| --- | --- | --- | --- |
| B1 | > 100 µM |  |  |
| {TAMRA}-GKKRNPGLKIPK [MKK6-derived 12-residue peptide, TAMRA-labeled] |  | 3.9 µM | binds |
